In the DeepSol protein solubility set:

Assay: soluble on expression in E. coli; label from the status in PepcDB or PDB records
With “SGSAARQPLFSFGVIADVQYADISDGRSFLGVPRYYRNSILVLQRAVETWNQHGNLKFVINMGDIVDGFCPKDQSLAATKKLVHEFEKFNGPVYHMIGNHCLYNLPREELLPLLKIPGRDGNAYYDFSPTPEYRVVVLDGYDISAVGWPQEHPNTIAALKILEEKNPNTDKNSPAGLEDVARRFVKYNGGVGEKQLQWLDSVLQDASNSNQRVIVCGHVPMSPGVASKAALLWNFDEVMNIIHKYDSVKVCLSGHDHKGGYFVDSHGVHHRSLEAALECPPGTYSFGYIDVYDNKLSLVGTDRMQSTDFEN” the “soluble on expression in E. coli” value was “soluble”.
With “ERFQLLMTQIGLQDVTTYEEFTKDAKIEKLVADKKNKTWQFHLHVPQIFPAALFHMMDVGMKRAFSQIAETEMQIVPENQTINETLIQEYWNLIVEPIGKQSPMIGKLLMEQKPTFKEPHFIEVAVHNDMEEATIQQRFQAKIIEN” the “soluble on expression in E. coli” value was “not soluble”.
For “MSLSDNAQHLYVNGNVGSSTEEITSVEYSKLLQLKLIDESLSFQWCNNYTVLSIYSMKETFARKTIYIHFPKPLLNKWFTAVVYESSETTSNLCFDVILKDGIFINLSLPIDFILSRTRQNEYPENWLKVLNPYDFSVRPPQCLFHVDNTFSVVFLKDGGLLGLKRIPLEILNDFELQPVLFNDSSYFQSFTRMFSKYDNHNSAVVSAELLNDKYLVTLTNDATIKIWDLTTYQLNAHFDLKEKNQQVNYGAAGKYMIICGSLLFVYLPAGNGSFQVIQLENTHSSRISFKPLNVNIPLNLSSYSIWSLIDIQLVKSSIVKQSGLNLVLLWKSNTVTKLQLLSFEDSLYSSYKWIDGNSTYLSDLLDDSDLITNGNMEKALLNLKSHYSQSTYDDAQKILNKNNVMVQINDPHNQDYLNNLEALLKELHKQYQEPSTLTILDDEIIVVNSLHMYHHSTYKLDSQLETIFFNIFEREGHHHHHH”, the “soluble on expression in E. coli” value was “soluble”.
For “AHKLFIGGLPNYLNDDQVKELLTSFGPLKAFNLVKDSATGLSKGYAFCEYVDINVTDQAIAGLNGMQLGDKKLLVQRASVGAKNA”, the “soluble on expression in E. coli” value was “soluble”.
In the case of “MAVPPTYVDLGKSARDIFTKGYGFGLIKLDLKTRSENGLEFKSSGSANTETSKVAGTLETKYKWAEHGLTFTEKWNTDNTLGTEITLEDQLTKGLKLTFDSSFSPNTGKKSGKIKSSYQREHINLGCDVDYDINGTAVHGALVLGLDGWLAGYQMTFEAGRNRITQSNFAVGYKTDEFQLHTNVNDGTEFGGSIYQKVNDNLETAVNLAWTAGNSNTRFGIAAKYQIDSDAAFSAKVNNSSLVGLGYTQTLKPGIKLTLSALLDGKNINAGGHKMGLGLEFEA”, the “soluble on expression in E. coli” value is reported as “soluble”.
In the case of “MAKHAPQLPIEVDSETGVWTTDALPMLYVPRHFFVNNHMGIEEVLGADAYAEILYKAGYKSAWHWCEKEAECHGLEGVAVFEHYMKRLSQRGWGLFEIERINLEEGTAEVRLRHSAFVYVYGKVNRKVDYMFTGWFAGAMDQILAARGSSLRTVAEQVYSGAEDGHEDGLFVVKPL”, the “soluble on expression in E. coli” value is reported as “soluble”.
With “MKKDIFYCEQWSYGYKKLHKPFSEKQAEEKHLKGELYTAVIGSATQPEYVITLREEVGFFSVHFFDKFGRDYLTHQFQKYSNSNYYFLSMAVWRDYITLESHDLAEGYTYFFNENTDDCYVLKEDFINNERYEKTELYSQKDKVILFPKFGEYDLVLNPDII” the “soluble on expression in E. coli” value was “not soluble”.
With “MKSRYLLFFLPLIVAKYTSAATMQPFHSPEESVNSQFYLPPPPGNDDPAFRYDKEAYFKGYAIKGSPRWKQAAEDADISVENIARIFSPVVGAKISPKDTPETWNMLQNLLKVGGYYATASAKKYYMRTRPFVLFNHSTCRPEDENTLRKDGSYPSGHTAYSTLLALVLSQARPERAQELARRGWEFGQSRVICGAHWQSDVDAGRYVGAVEFARLQTIPAFQKSLAKVREELNDKNNLLSKEERPELNY” the “soluble on expression in E. coli” value was “soluble”.
For “AASWSHPQFEKGAETAVPNSGGGELFATHCAGCHPQGGNTVHPEKTLARARREANGIRTVRDVAAYIRNPGPGMPAFGEAMIPPADALKIGEYVVASFP”, the “soluble on expression in E. coli” value was “soluble”.
For “MSLELLIPQLEFLNEEGAQAEVWALSRIFLDTLVKETGQKVKAIFPDAGAAALLKYQWTDAEFKCASLSDRKPVDVEDEVVVMIIPDHQMVESVERIASQLSDDPIRPLVMWNPRLVSGDVGVGFNVRNLRRNFLSTFTTVYSMRPLPTGAVFRQYPGKWKVFYDDPKRPNRYLLARELVSRPDATDIEIIFGGGDEQSDEAPSLMNNVMGVFSSVSRFMRVISKEGHHHHHH”, the “soluble on expression in E. coli” value was “not soluble”.
In the case of “SLGRTRRKNKPITIKSYVVSSDTWQLGCIEYGSHSMSGQRAYNEDRVCVVPSVDVCTREGCCKAHTKAMFYAVYDGHNGEEAVNYVQEHLHKNIFRSRSFHGDVSKAIRAGFIATDNALRSMVMEKIRGEGFEDQDISPFSSGTTACTAVVRDMQLYIGNLGDSRCVLSRAGRSHLITVDHSCRTNADEQQRVREDGGHYDTDGYLNGAIGVSRAFGAFDKNCGQKLSGLTCEPQIHKETLRREDEFMIIACDGVFDVISCQEAVNCPPERLQHKDKRPADWTPTTPGLGEEKAATAEARPSSSSRSPLAATQSGASAGDRTGVSG”, the “soluble on expression in E. coli” value is reported as “not soluble”.
In the case of “MAHHHHHHMLLFKRPHLRACESHADIAVDLAPLSQLRNYAEFEELLREELQKIYGNAPAEFHGVITYSTRDAPQSFRGCFTERQLETLHQYDAAVEKINHLSSEYRVALEEHERLVEGNKDRKPTQKRIREEEKSRKRLRAMKREVVAAEYNKECLSLKLKNLFSIDVIRVPLH”, the “soluble on expression in E. coli” value is reported as “soluble”.
With “MAHHHHHHMKALQRGWRVICATRGGVPIHGSPLYNDFTSLQQKHGDTLSQGVAHDTCHVPQPLEFVSLDATSRLQVFQFMDDHPDASAIISCIGLLTRDHEMARRVCGDANVNIAAALYERRAVARRMVLISAEPVGTRAGFFLNSRWALKGYFMGKRVAERAVLENLGDDGAVLRPGFIYGTRHVPLGEGCVPVPLWPIGKPLEAVLRPLHLHGLLVPPISVDVVAEAAVRLAEAPGPSTVLDYYGMQQVCGLPQDGHHVLGG” the “soluble on expression in E. coli” value was “not soluble”.
For “MASANNQNKFLDPRERGNILNYLKVCLLLARAVRRMHAAGLCHSDLSYKNVLIDPEQGHACIIDVDGLVVPGKFPPDVVGTPDFIAPEVVKTSHLLKEDPQRILPNITTDRHALSVLIYMYLFYRHPLRGGKIHDMDDEVRDESLAMGERALFIEHPTDRSNAVKLNQVKPSSLPWADPQKVPYTIMGPYLTQLFEKAFIDGLHDPSKRPTADEWETALVKTVDLIQPCQNTACEQKWYVFSGKTKPVCPYCLEHHHHHH”, the “soluble on expression in E. coli” value was “soluble”.
For “MSYLAKFTSPNQMKKLIKTVVADLLGSDEDLKTSSCHVISNLAANSQEMLKGYTSQIVPYVLLEKCREVPKEDEIAREKQEKWNDVWAELVPTTSSAVRLYKEEILNLAIDLVTNNEVWAVRKQAAVMIRVTFENLKKDAGIDVAKKSALSLRDTLNGRIWDGKIEILRALTSAFEAGGADFKRNMSATEIEDMETVLRREASKKNMEYAGAGLATIATWAVISESVESATWLAKKIDENVTKLIGARNDADSDDNMDGLSNLEKEIRASKLVTLNLTALAISLPAFNNAEEAESTLSQIAGYVKSTVIAWKSKQFFFNELAKSLEKWTPREPVAAGKLIDNILEQADELCAQQKKTVATDALQVVLRIQERSDRFGVDRNSVLDSVNRGVAGSETGLGSRFEAKMDTD”, the “soluble on expression in E. coli” value was “not soluble”.
With “STSTNNELTVSMMGTSTKEEVVSKVDEEDDDSSSDSDMDYGSDSEWAGYNVLAETEPEWDVDSFDGHEFKINPRVRQMYRSQELYDKYYNNRLKAFENKGFLSDHLNGIYDVYLDEKMDGYNSTRDFMAELANVCVKKHNETKGNTLELVNVVRATERGAATWRLYITFMAREFPDGPLVEYQAKVIKFLGVKDPFPVLCRAAPKPGI” the “soluble on expression in E. coli” value was “soluble”.
In the case of “MGSDKIHHHHHHMMKSVLADAVFGGALMIEFYASEALICPRRVWFRLKGIPEKWPEVAKPRLEKGMKIHEVLGKVLKDRFDVELEKSVIIRFPKLGMEIHGKIDVYKEFPIEIKGKSYIPSSPIDYHLAQLNLYLRGVNAEYGYLYYVKLTDDPWRAISDIVFDSFPLIKGNGLKIFEVPYDEVLFKETVKYFYEIKLYLENDELPPAWKGPHCKFCPYNYICLSGEEF”, the “soluble on expression in E. coli” value is reported as “not soluble”.
In the case of “MAKAFEEQRRSPDLEALPFEDRIGLLVDREAAERDTRRLTTRLKIAALRQTACVEDVDLRTPRGIDRAVFAKLVEGRWIDRHENLLVTGATGLGKSWLACALGHKACRDNRSVLYHRVPRLFEALALARGDGRYARLLKSLGRAQLLILDDWGLSVLTAAERRDLLEILEDRHGRASTIVTRQLPVDTWHGAIGDPTVADAILDRLVHNAHRLQLTGESMRKRSAKTITLDGQPEHAAALEHHHHHH”, the “soluble on expression in E. coli” value is reported as “not soluble”.
With “MSNHQVALQFEDGVTRFICIAQGETLSDAAYRQQINIPMDCREGECGTCRAFCESGNYDMPEDNYIEDALTPEEAQQGYVLACQCRPTSDAVFQIQASSEVCKTKIHHFEGTLARVENLSDSTITFDIQLDDGQPDIHFLAGQYVNVTLPGTTETRSYSFSSQPGNRLTGFVVRNVPQGKMSEYLSVQAKAGDKMSFTGPFGSFYLRDVKRPVLMLAGGTGIAPFLSMLQVLEQKGSEHPVRLVFGVTQDCDLVALEQLDALQQKLPWFEYRTVVAHAESQHERKGYVTGHIEYDWLNGGEVDVYLCGPVPMVEAVRSWLDTQGIQPANFLFEKFSAN” the “soluble on expression in E. coli” value was “soluble”.
With “MGSDKIHHHHHHAACADNADLNEPAGSTTPPAQVLNATVKNLPGAAIIYYDLPDDQNLKYVRASYKVDNMVRTVNASFYTDSLVVEGFPTKGEYDIELYSVSYGEVVSSPLVVKVNPDTPPYQKVRGTLVSAETFGGIRVNFDNPEKAKLGLGVIKKQAEGIWTQVYMHYTEAKGGDFYVRGLDAVTTDFGIFVRDRWGHLSDTLYVTETPLYEEQCDKSLFRKMALPTDSYECHSWNEVTKGNDMTRLWDGITDADPCFQTKTTTVMPQWFTFDMGENYKLSRFVMVSRYYPGKYGNTFKAGHPKHFEIWGSINPNPDGSFDDSWVLLSEYESVKPSGGGVNDALTAEDQEAAKNGENFIIPDNAPAVRYIRFRTNNTWGNTRYMHLHELTFFGAKHN” the “soluble on expression in E. coli” value was “not soluble”.
For “MRGMLPLFEPKGRVLLVDGHHLAYRTFHALKGLTTSRGEPVQAVYGFAKSLLKALKEDGDAVIVVFDAKAPSFRHEAYGGYKAGRAPTPEDFPRQLALIKELVDLLGLARLEVPGYEADDVLASLAKKAEKEGYEVRILTADKDLYQLLSDRIHVLHPEGYLITPAWLWEKYGLRPDQWADYRALTGDESDNLPGVKGIGEKTARKLLEEWGSLEALLKNLDRLKPAIREKILAHMDDLKLSWDLAKVRTDLPLEVDFAKRREPDRERLRAFLERLEFGSLLHEFGLLESPKALEEAPWPPPEGAFVGFVLSRKEPMWADLLALAAARGGRVHRAPEPYKALRDLKEARGLLAKDLSVLALREGLGLPPGDDPMLLAYLLDPSNTTPEGVARRYGGEWTEEAGERAALSERLFANLWGRLEGEERLLWLYREVERPLSAVLAHMEATGVRLDVAYLRALSLEVAEEIARLEAEVFRLAGHPFNLNSRDQLERVLFDELGLPAIGKTEKTGKRSTSAAVLEALREAHPIVEKILQYRELTKLKSTYIDPLPDLIHPRTGRLHTRFNQTATATGRLCCCDPNLQNIPVRTPLGQRIRRGFIAEEGWLLVALDYSQIELRVLAHLSGDENLIRVFQEGRDIHTETASWMFGVPREAVDPLMRRAAKTINFGVLYGMSAHRLSQELAIPYEEAQAFIERYFQSFPKVRAWIEKTLEEGRRRGYVETLFGRRRYVPDLEARVKSVREAAERMAFNMPVQGTAADLMKLAMVKLFPRLEEMGARMLLQVHDELVLEAPKERAEAVARLAKEVMEGVYPLAVPLEVEVGIGEDWLSAKE”, the “soluble on expression in E. coli” value was “soluble”.
